Laboratory results published in patent publication US20240343803A1 (SHANDONG SIMCERE BIOPHARMACEUTICAL, published 2024).
Several values for one entry are separate records, joined by “and”; a condition that tells them apart may be missing. Equal entries are not always repeated. Where two headings read alike, the source gives them in different places.

T1: human PVRIG-his (AcroBiosystems, Cat NO. PVG-H52H4) (human, UniProt Q6DKI7 41-171, limits assumed)
T1 construct: treated as the same protein; also called human PVRIG-His protein; Human PVRIG-His, Acro C227P1-9ARF1-T4
T1 sequence (looked up): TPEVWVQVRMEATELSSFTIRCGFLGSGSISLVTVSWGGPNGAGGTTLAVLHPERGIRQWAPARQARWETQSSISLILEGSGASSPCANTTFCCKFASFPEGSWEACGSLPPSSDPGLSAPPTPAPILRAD

T2: human PVRIG-mFc protein (Acro, PVG-H5253) (human, UniProt Q6DKI7 41-171, limits assumed)
T2 construct: bought reagent; also called PVRIG-ECD-mFc
T2 sequence (looked up): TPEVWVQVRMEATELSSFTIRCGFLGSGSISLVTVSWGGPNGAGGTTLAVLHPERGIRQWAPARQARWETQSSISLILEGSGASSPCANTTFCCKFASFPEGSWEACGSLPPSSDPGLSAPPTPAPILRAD

T3: cynomolgus monkey PVRIG (Novoprotein, Cat NO. C09B) (cynomolgus monkey, UniProt A0A2K5WVV8 41-171)
T3 construct: bought reagent; also called cynomolgus monkey PVRIG recombinant protein
T3 sequence: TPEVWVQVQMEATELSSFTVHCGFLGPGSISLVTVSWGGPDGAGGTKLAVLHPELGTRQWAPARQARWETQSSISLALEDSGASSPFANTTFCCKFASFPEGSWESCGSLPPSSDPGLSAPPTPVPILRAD

T4: human PVRIG on FlpinCHO-PVRIG cells (human, UniProt Q6DKI7 41-326)
T4 construct: whole, on cells; also called FlpinCHO-hPVRIG; FlpinCHO-human PVRIG
T4 sequence (looked up): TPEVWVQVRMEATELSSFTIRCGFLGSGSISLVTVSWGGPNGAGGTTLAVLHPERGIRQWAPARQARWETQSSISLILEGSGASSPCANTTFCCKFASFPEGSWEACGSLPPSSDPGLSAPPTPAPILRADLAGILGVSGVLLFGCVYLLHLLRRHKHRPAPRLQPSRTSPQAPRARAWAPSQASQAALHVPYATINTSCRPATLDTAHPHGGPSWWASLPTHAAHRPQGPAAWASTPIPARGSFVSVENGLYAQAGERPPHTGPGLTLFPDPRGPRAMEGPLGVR


What was measured:
[1] = molecular target: T1, human PVRIG-his (AcroBiosystems, Cat …); assay: competition ELISA on coated human PVRIG-his; blocked ligand human PVRL2-mFc
Summary of the method: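 Wells were coated with 0.5 μg/mL human PVRIG-his. Bound ligand was read by HRP/TMB absorbance, and IC50 came from a four-parameter logistic fit of OD against antibody concentration.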

[2] = molecular target: T2, human PVRIG-mFc protein (Acro, …); assay: competition FACS; blocked: PVRIG-mFc binding to CHO-K1 CD112 cells
Experimental: The Ham's F12 (Gibico, 21127-022) complete medium containing 10% FBS was then added to stop the digestion and acquire cell suspension. After counting with a cell counter (Beckman Coulter, Vi-CELL), an appropriate amount of cell suspension was centrifuged at 350×g to remove the supernatant, washed twice with PBS, stained with Zombie violet (Biolegend, 423114) and incubated at room temperature for 20 minutes. After incubation, the cells were added with staining buffer (2% FBS+PBS) to stop staining, centrifuged at 350×g to remove the supernatant, washed twice and resuspended with staining buffer to a density of 2×10⁶ cells/mL. The cells were plated into a 96-well plate (50 μL of cell suspension per well) for further use. A working solution of human PVRIG-mFc protein (Acro, PVG-H5253) prepared with staining buffer, 1 μg/mL (four-fold concentration), was added into a 96-well plate (50 μL PVRIG-mFc working solution per well). […] The diluted antibodies were added to the well containing 50 μL of PVRIG-mFc. The plate was placed on a microplate shaker at 400 rpm for 1 minute to fully mix the antibodies and PVRIG-mFc proteins, and then incubated at 4° C. for 30 minutes. After the incubation, the cell suspension prepared above (100 μL) was added into the wells, gently mixed with the pipette tip and incubated at 4° C. for 30 minutes. After the incubation, the cells were washed twice with staining buffer (200 μL per well) and centrifuged at 350×g for 5 minutes to discard the supernatant. The PE goat anti-mouse IgG Fc antibody (Biolegend, 405337) was diluted 250 times with staining buffer, added into the washed wells (100 μL per well), mixed well, and stained at 4° C. for 30 minutes. After staining, the cells were washed twice with staining buffer, finally resuspended with 200 μL staining buffer and analyzed by flow cytometry (BD, Canto II). The weaker the fluorescence signal, the stronger the ability of the antibodies blocks the binding of CHO-K1 human CD112 cells to the PVRIG-mFc protein.

[3] = molecular target: T3, cynomolgus monkey PVRIG (Novoprotein, …); assay: ELISA, coated cynomolgus monkey PVRIG
Experimental: (§1) The ELISA plate was pre-coated with 100 μL/well of 0.5 μg/mL human PVRIG-his (AcroBiosystems, Cat NO. PVG-H52H4) or cynomolgus monkey PVRIG (Novoprotein, Cat NO. C09B). […] A HRP substrate, TMB (Thermo, Cat NO. 34029) was added into wells after washing the plate again for color development. After adding a termination solution to terminate the reaction, the absorbance value was read by a microplate reader (MD i3×). An antibody binding curve was drawn with concentration of antibodies as the abscissa and the corresponding OD value as the ordinate. The EC50 value was calculated by using a Four Parameter Logistic Fit (GraphPadPrism9). The smaller the EC50 value, the stronger the ability of the antibodies binds to human or cynomolgus monkey PVRIG. The positive control antibodies are COM701-hIgG1 (Patent No.:US20180244774A1), COM701-hIgG4 (patent No.: US20180244774A1) and SRF813-hIgG1 (Patent No.:US20200040081A1); and the negative control antibodies are anti-HA HcAb-hIgG1 (Chengdu NB Biolab, Cat NO. NBR022), anti-CD38 HcAb-hIgG1 (in-house) and anti-Fluorescein-hIgG1 (in house).

[4] = molecular target: T2, human PVRIG-mFc protein (Acro, …); assay: competition FACS; blocked: human PVRIG-mFc binding to CHO-K1-CD112 cells
Summary of the method: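 CHO-K1-CD112 cells stained with Zombie violet were added to the mixture for another 30 min at 4° C, and bound PVRIG-mFc was detected with PE goat anti-mouse IgG Fc (1:250) as mean fluorescence intensity on a BD Canto II. IC50 values were read off the resulting competition curve.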

[5] = molecular target: T1, human PVRIG-his (AcroBiosystems, Cat …); assay: ELISA, coated human PVRIG-his
Experimental: as §1

[6] = molecular target: T2, human PVRIG-mFc protein (Acro, …); assay: competition FACS; blocked: human PVRIG-mFc binding to CHO-K1-CD112 cells; remark: listed apart in the source
Summary of the method: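 Antibody dilutions premixed with human PVRIG-mFc (working solution 1 μg/mL, four-fold concentration) for 30 min at 4° C, then incubated with CHO-K1-CD112 cells 30 min at 4° C. Bound PVRIG-mFc detected by PE anti-mouse IgG Fc flow cytometry; IC50 and AUC from four-parameter fit of MFI versus antibody concentration.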

[7] = molecular target: T1, human PVRIG-his (AcroBiosystems, Cat …); assay: competition ELISA on coated human PVRIG-his; blocked ligand human PVRL2-mFc; remark: listed apart in the source
Experimental: The ELISA plate was pre-coated with 100 μL/well of 0.5 μg/mL human PVRIG-his protein (AcroBiosystems, Cat NO. PVG-H52H4). The tested anti-PVRIG antibodies were diluted from the highest concentration of 16 nM (two-fold concentration). The diluted antibodies were mixed with 18 ng/ml human PVRL2-mFc (AcroBiosystems, Cat NO. CD2-H5257) in equal volume, added into the plate (100 μL/well), and incubated with shaking at room temperature for 2.0 hours. […] A HRP substrate, TMB (Thermo, Cat NO. 34029) was added into wells after washing the plate again for color development. After adding a termination solution to terminate the reaction, the absorbance value was read by a microplate reader (MD i3×). An inhibiting curve was drawn with concentration of antibodies as the abscissa and the corresponding OD value as the ordinate. The IC50 value was calculated by using a Four Parameter Logistic Fit (GraphPadPrism9). The smaller the IC50 value, the stronger the ability of the antibodies inhibits the binding between PVRIG and PVRL2. The positive and negative controls are the same as in Example 8.
The methods refer to Example 11. The inhibiting activity of the humanized antibodies was normalized to the corresponding parental antibodies. If the percentage value is higher than 100%, the inhibiting effect of humanized antibodies is better than that of parental antibodies.

[8] = molecular target: T4, human PVRIG on FlpinCHO-PVRIG cells; assay: FACS, FlpinCHO-PVRIG cells
Experimental: After discarding the cell culture medium, the cells were rinsed with PBS and digested for 8-10 minutes by adding 1 mL Versene (Gibico, 15040-066). The Ham's F12 (Gibico, 21127-022) complete medium containing 10% FBS was then added to terminate the digestion and acquire cell suspension. After counting with a cell counter (Beckman Coulter, Vi-CELL), an appropriate amount of cell suspension was centrifuged at 350×g to remove the supernatant, washed twice with PBS, stained with Zombie violet (Biolegend, 423114) and incubated at room temperature for 20 minutes. After incubation, the cells were added with staining buffer (2% FBS+PBS) to stop staining, centrifuged at 350×g to remove the supernatant, washed twice and resuspended with staining buffer to a density of 2×10⁶ cells/mL. The cells were plated into a 96-well plate (50 μL of cell suspension per well) for further use. The antibodies were diluted from the highest concentration of 46 nM (two-fold concentration) with staining buffer by 3.3-fold serial dilution. The diluted antibodies were added to the well containing 50 μL of cell suspension. The plate was placed on a microplate shaker at 400 rpm for 1 minute to fully mix the antibodies and cells, and then incubated at 4° C. for 30 minutes. After the incubation, the cells were washed twice with staining buffer (200 μL per well) and centrifuged at 350×g for 5 minutes to discard the supernatant. The PE goat anti-human IgG Fc antibody (ebioscience, 12-4998-82) was diluted 250 times with staining buffer, added into the washed wells (100 μL per well), mixed well, and stained at 4° C. for 30 minutes. After staining, the cells were washed twice with staining buffer, finally resuspended with 200 μL staining buffer and analyzed by flow cytometry (BD, Canto II). The stronger the signal, the stronger the ability of the antibodies binds to PVRIG. An antibody binding curve was drawn with concentration of antibodies as the abscissa and the corresponding Mean Fluorescence Intensity (MFI) as the ordinate. The AUC value of the curve was calculated by using a Four Parameter Logistic Fit (GraphPadPrism9).

| Binder | IC50 (read off the curve) [1] | IC50 (read off the curve) [2] | EC50 (read off the curve) [3] | IC50 (read off the curve) [4] | EC50 (read off the curve) [5] | IC50 (read off the curve) [6] | IC50 (read off the curve) [7] | EC50 (read off the curve) [8] |
| --- | --- | --- | --- | --- | --- | --- | --- | --- |
| COM701-hIgG4 (antibody, V domains shown, anti-PVRIG positive control) VH: QVQLVQSGAEVKKPGASVKVSCKASGYTFTDYNINWVRQAPGQGLEWMGYIYPYIGGSGYAQKFQGRVTMTRDTSTSTVYMELSSLRSEDTAVYYCAREDKTARNAMDYWGQGTLVTVSS VL: DIQMTQSPSSLSASVGDRVTITCRVSENIYSNLAWYQQKPGKAPKLLIYEATNLAEGVPSRFSGSGSGTDFTLTISSLQPEDFATYYCQHFWGTPYTFGQGTKLEIK | ~800 pM | ~0.7 nM | ~100 pM | ~0.9 nM | ~300 pM | ~0.8 nM | – | – |
| PVRIG-A50 (VHH, tested as VHH-hinge-CH2-CH3 (human IgG1-Fc); not shown: human IgG1 hinge-CH2-CH3) VHH: EVQLVESGGGLVQPGGSLRLSCAASGFTFSYYDMSWVRQAPGKGLEWVSTINSNGGRTSYVDSVKGRFTISRDNTKNTLYLQMNSLKPEDTAVYYCVEGDPHNFGLENLSLRDFGSWGQGTQVTVSS | ~2000 pM | – | – | – | – | ~0.7 nM | ~800 pM and ~1000 pM | ~0.7 nM |

More lines, now with the values ahead:

| IC50 (read off the curve) [1] | IC50 (read off the curve) [2] | EC50 (read off the curve) [3] | IC50 (read off the curve) [4] | EC50 (read off the curve) [5] | IC50 (read off the curve) [6] | IC50 (read off the curve) [7] | EC50 (read off the curve) [8] | Binder |
| --- | --- | --- | --- | --- | --- | --- | --- | --- |
| ~600 pM | – | – | – | – | ~1 nM | ~600 pM | ~0.2 nM | PVRIG-A118 (VHH, tested as VHH-hinge-CH2-CH3 (human IgG1-Fc); not shown: human IgG1 hinge-CH2-CH3) VHH: QVQLVESGGGLVQAGGSLRLSCAASETYFDLYVMGWYRQAPGKDRELVATITYTGSIKIVDSVKDRFTISRGDAKNTVSLQMSSLKPEDTAVYFCNADPSGLGRKVYWGQGTQVTVSS |
| – | ~1 nM | – | – | – | – | – | – | PVRIG-A50-H1b (VHH, humanized VHH; also called A50.VH1b) VHH: EVQLVESGGGLVQPGGSLRLSCAASGFTFSYYDMSWVRQAPGKGLEWVSTINSDGGRTSYVDSVKGRFTISRDNSKNTLYLQMNSLRAEDTAVYYCVEGDPHNFGLESLSLRDFGSWGQGTMVTVSS |
